The numbers were not newly measured in article PMC5727865, which cites them from elsewhere.

The data set addresses gp120 gp120 (Human immunodeficiency virus 1) (UniProt O70902).
Sequence of UniProt O70902 (O70902 29-500): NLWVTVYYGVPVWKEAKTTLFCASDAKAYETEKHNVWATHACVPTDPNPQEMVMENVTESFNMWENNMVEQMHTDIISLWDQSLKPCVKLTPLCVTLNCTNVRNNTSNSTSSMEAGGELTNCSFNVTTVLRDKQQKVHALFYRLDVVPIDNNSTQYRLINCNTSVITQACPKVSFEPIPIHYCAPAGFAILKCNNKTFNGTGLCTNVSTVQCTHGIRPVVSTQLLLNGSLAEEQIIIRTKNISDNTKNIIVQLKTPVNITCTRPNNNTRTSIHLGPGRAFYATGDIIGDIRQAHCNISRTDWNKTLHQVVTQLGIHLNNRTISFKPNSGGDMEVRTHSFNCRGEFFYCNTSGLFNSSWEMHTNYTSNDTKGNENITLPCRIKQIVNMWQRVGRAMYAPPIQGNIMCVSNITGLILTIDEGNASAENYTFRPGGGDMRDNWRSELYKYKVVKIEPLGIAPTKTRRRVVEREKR

Broadly, the Kd is the equilibrium constant for the complex coming apart. With DC-SIGN (from UniProt Q9NNX6), the Kd was 1.7 nM.
